Experimental data: the Immune Epitope Database (IEDB)
pKd: −log10 of the molar value.

Legend:
HLA-B*51:01 [1] = assay: IEDB peptide-MHC binding, purified MHC/direct/fluorescence; filed as Kd, often an IC50 or EC50 that approximates it; ≥ and ≤ were set here for values at or beyond the usual limits of such assays
HLA-B*07:02 = assay: as above
HLA-B*44:02 = assay: as above
HLA-A*24:03 = assay: as above; conditions: source organism: Vibrio cholerae
HLA-A*03:01 [2] = assay: as above
HLA-B*08:01 = assay: as above
HLA-A*26:01 [3] = assay: as above; conditions: source organism: Vibrio cholerae
HLA-B*15:01 [4] = assay: as above
HLA-A*31:01 [5] = assay: as above
HLA-A*02:01 = assay: as above
HLA-B*58:01 = assay: as above
HLA-A*69:01 [6] = assay: as above
HLA-B*40:01 = assay: as above
HLA-B*27:05 = assay: as above
HLA-A*01:01 = assay: as above
HLA-A*11:01 [7] = assay: as above
HLA-B*48:01 = assay: as above
HLA-B*57:01 [8] = assay: as above
HLA-B*46:01 [9] = assay: as above
HLA-B*15:17 = assay: as above
HLA-A*02:06 = assay: IEDB peptide-MHC binding, purified MHC/competitive/radioactivity; filed as Kd, often an IC50 or EC50 that approximates it; ≥ and ≤ were set here for values at or beyond the usual limits of such assays; conditions: source organism: Dengue virus 2 Jamaica/1409/1983
HLA-B*57:01 [10] = assay: IEDB peptide-MHC binding, purified MHC/competitive/fluorescence; filed as Kd, often an IC50 or EC50 that approximates it; ≥ and ≤ were set here for values at or beyond the usual limits of such assays; conditions: source organism: Homo sapiens
HLA-B*51:01 [11] = assay: as above; conditions: source organism: Homo sapiens
HLA-A*26:01 [12] = assay: as above; conditions: source organism: Homo sapiens
HLA-B*46:01 [13] = assay: as above; conditions: source organism: Homo sapiens
HLA-A*69:01 [14] = assay: as above; conditions: source organism: Homo sapiens
HLA-B*27:03 = assay: as above; conditions: source organism: Homo sapiens
HLA-B*18:01 [15] = assay: as above; conditions: source organism: Homo sapiens
HLA-A*03:01 [16] = assay: IEDB peptide-MHC binding, purified MHC/competitive/radioactivity; filed as Kd, often an IC50 or EC50 that approximates it; ≥ and ≤ were set here for values at or beyond the usual limits of such assays; conditions: source organism: Vaccinia virus WR
HLA-A*31:01 [17] = assay: as above; conditions: source organism: Vaccinia virus WR
HLA-A*11:01 [18] = assay: as above; conditions: source organism: Vaccinia virus WR
HLA-A*68:01 = assay: as above; conditions: source organism: Vaccinia virus WR
HLA-A*33:01 = assay: as above; conditions: source organism: Vaccinia virus WR
HLA-B*15:01 [19] = assay: IEDB peptide-MHC binding, purified MHC/competitive/fluorescence; filed as Kd, often an IC50 or EC50 that approximates it; ≥ and ≤ were set here for values at or beyond the usual limits of such assays; conditions: source organism: Homo sapiens
HLA-B*45:06 = assay: as above
HLA-B*15:42 = assay: as above
HLA-B*83:01 = assay: as above
HLA-B*18:01 [20] = assay: IEDB peptide-MHC binding, purified MHC/direct/fluorescence; filed as Kd, often an IC50 or EC50 that approximates it; ≥ and ≤ were set here for values at or beyond the usual limits of such assays; conditions: source organism: Mammarenavirus lassaense
HLA-A*02:12 = assay: as above; conditions: source organism: Listeria monocytogenes serotype 4b str. H7858
HLA-A*02:16 = assay: as above; conditions: source organism: Listeria monocytogenes serotype 4b str. H7858
[21] = source organism: Mammarenavirus lassaense
[22] = source organism: Vibrio cholerae
[23] = source organism: Giardia lamblia ATCC 50803
[24] = source organism: Camelpox virus M-96
[25] = source organism: Bacillus cytotoxicus
[26] = source organism: Listeria monocytogenes
[27] = source organism: Yaba-like disease virus
[28] = source organism: Orthohantavirus dobravaense
[29] = source organism: Human immunodeficiency virus 1
[30] = source organism: Mammarenavirus juninense

Q: What does the source list for CGRSCTSSL?
A: pKd (HLA-B*51:01 [1]; [21]): ≤ 4.70; pKd (HLA-B*07:02; [21]): 6.25

Q: How did the pKd (HLA-B*44:02; [22]) turn out when DSDPMDGCE was run?
A: ≤ 4.70

Q: And the pKd (HLA-A*24:03)?
A: ≤ 4.70

Q: What about the pKd (HLA-A*03:01 [2]; [22]) of the same sequence?
A: ≤ 4.70

Q: What about the pKd (HLA-B*08:01; [22]) of the same sequence?
A: ≤ 4.70

Q: And the pKd (HLA-A*26:01 [3])?
A: ≤ 4.70

Q: What about the pKd (HLA-B*07:02; [22]) of the same sequence?
A: ≤ 4.70

Q: What about the pKd (HLA-B*15:01 [4]; [22]) of the same sequence?
A: ≤ 4.70

Q: What about the pKd (HLA-A*31:01 [5]; [22]) of the same sequence?
A: ≤ 4.70

Q: What about the pKd (HLA-A*02:01; [22]) of the same sequence?
A: ≤ 4.70

Q: And the pKd (HLA-B*58:01; [22])?
A: ≤ 4.70

Q: And the pKd (HLA-A*69:01 [6]; [22])?
A: ≤ 4.70

Q: And the pKd (HLA-B*40:01; [22])?
A: ≤ 4.70

Q: And the pKd (HLA-B*27:05; [22])?
A: ≤ 4.70

Q: What about the pKd (HLA-A*01:01; [22]) of the same sequence?
A: ≤ 4.70

Q: And the pKd (HLA-A*11:01 [7]; [22])?
A: ≤ 4.70

Q: Which results are given for DSPATLSAY?
A: pKd (HLA-B*48:01; [23]): ≤ 4.70; pKd (HLA-A*03:01 [2]; [23]): ≤ 4.70; pKd (HLA-B*57:01 [8]; [23]): ≤ 4.70; pKd (HLA-B*15:01 [4]; [23]): ≤ 4.70; pKd (HLA-B*46:01 [9]; [23]): ≤ 4.70; pKd (HLA-A*31:01 [5]; [23]): ≤ 4.70; pKd (HLA-A*02:01; [23]): ≤ 4.70; pKd (HLA-B*58:01; [23]): ≤ 4.70; pKd (HLA-B*15:17; [23]): 5.26; pKd (HLA-B*40:01; [23]): ≤ 4.70; pKd (HLA-B*27:05; [23]): ≤ 4.70; pKd (HLA-A*01:01; [23]): ≤ 4.70; pKd (HLA-A*11:01 [7]; [23]): ≤ 4.70

Q: KQIAEHATI was tested. Which pKd (HLA-B*48:01; source organism: Bacillus thuringiensis) did it give?
A: 6.45

Q: With KQLGQVMLL as the sequence, how does the pKd (HLA-B*48:01; source organism: dengue virus type 2) read?
A: 8.21

Q: What about the pKd (HLA-A*02:06) of the same sequence?
A: 8.29

Q: With KQMEDGHTL as the sequence, how does the pKd (HLA-A*02:01; source organism: Rattus norvegicus) read?
A: 8.32

Q: What about the pKd (HLA-B*57:01 [10]) of the same sequence?
A: ≤ 4.70

Q: What about the pKd (HLA-B*51:01 [11]) of the same sequence?
A: ≤ 4.70

Q: What about the pKd (HLA-A*26:01 [12]) of the same sequence?
A: ≤ 4.70

Q: And the pKd (HLA-B*46:01 [13])?
A: ≤ 4.70

Q: What about the pKd (HLA-A*69:01 [14]) of the same sequence?
A: ≤ 4.70

Q: What about the pKd (HLA-B*27:03) of the same sequence?
A: ≤ 4.70

Q: And the pKd (HLA-B*18:01 [15])?
A: ≤ 4.70

Q: How did the pKd (HLA-B*57:01 [8]; [24]) turn out when KSISSIFGY was run?
A: 7.43

Q: And the pKd (HLA-B*58:01; [24])?
A: 8.82

Q: What about the pKd (HLA-B*15:17; [24]) of the same sequence?
A: ≥ 9.00

Q: And the pKd (HLA-A*03:01 [16])?
A: 7.32

Q: And the pKd (HLA-A*31:01 [17])?
A: 7.06

Q: And the pKd (HLA-A*11:01 [18])?
A: 8.49

Q: What about the pKd (HLA-A*68:01) of the same sequence?
A: 5.17

Q: And the pKd (HLA-A*33:01)?
A: ≤ 4.60

Q: With KSTSPTRTW as the sequence, how does the pKd (HLA-B*57:01 [8]; [24]) read?
A: 7.15

Q: What about the pKd (HLA-B*58:01; [24]) of the same sequence?
A: 7.46

Q: What about the pKd (HLA-B*15:17; [24]) of the same sequence?
A: 8.62

Q: Which results are given for KTMMQAHDL?
A: pKd (HLA-B*57:01 [8]; source organism: Bacillus cereus AH1134): 6.92; pKd (HLA-B*58:01; [25]): 7.12; pKd (HLA-B*15:17; [25]): 6.65

Q: LSVSSRCPI was tested. Which pKd (HLA-B*57:01 [8]; [21]) did it give?
A: 5.93

Q: What about the pKd (HLA-B*58:01; [21]) of the same sequence?
A: 6.86

Q: And the pKd (HLA-B*15:17; [21])?
A: 8.39

Q: LVKSAWLSL was tested. Which pKd (HLA-B*51:01 [11]) did it give?
A: ≤ 4.70

Q: What about the pKd (HLA-A*26:01 [12]) of the same sequence?
A: ≤ 4.70

Q: What about the pKd (HLA-B*15:01 [19]) of the same sequence?
A: ≤ 4.70

Q: What about the pKd (HLA-A*69:01 [14]) of the same sequence?
A: ≤ 4.70

Q: MAMLADYFY was tested. Which pKd (HLA-B*51:01 [1]; [26]) did it give?
A: ≤ 4.70

Q: What about the pKd (HLA-B*07:02; [26]) of the same sequence?
A: ≤ 4.70

Q: And the pKd (HLA-B*15:01 [4]; source organism: Listeria monocytogenes serotype 4b str. H7858)?
A: 7.92

Q: With NTDNKFISY as the sequence, how does the pKd (HLA-A*01:01; [24]) read?
A: ≥ 9.00

Q: What about the pKd (HLA-B*45:06; [27]) of the same sequence?
A: ≤ 5.30

Q: And the pKd (HLA-B*15:42; [27])?
A: ≤ 5.30

Q: And the pKd (HLA-B*83:01; [27])?
A: ≤ 5.30

Q: How did the pKd (HLA-B*57:01 [8]; [28]) turn out when QTSSIEGAW was run?
A: ≤ 4.70

Q: And the pKd (HLA-B*58:01; [28])?
A: ≤ 4.70

Q: What about the pKd (HLA-B*15:17; [28]) of the same sequence?
A: 5.24

Q: RPMTYKAAL was tested. Which pKd (HLA-B*07:02; [29]) did it give?
A: 7.40

Q: What about the pKd (HLA-A*69:01 [6]; [29]) of the same sequence?
A: 4.96

Q: What about the pKd (HLA-A*11:01 [7]; [29]) of the same sequence?
A: 4.75

Q: What about the pKd (HLA-B*45:06; [29]) of the same sequence?
A: ≤ 5.30

Q: And the pKd (HLA-B*15:42; [29])?
A: ≤ 5.30

Q: What about the pKd (HLA-B*83:01; [29]) of the same sequence?
A: 7.01

Q: How did the pKd (HLA-B*40:01; [21]) turn out when SERFINYAI was run?
A: 7.28

Q: And the pKd (HLA-B*18:01 [20])?
A: 7.48

Q: What about the pKd (HLA-B*45:06; [21]) of the same sequence?
A: ≤ 5.30

Q: And the pKd (HLA-B*15:42; [21])?
A: ≤ 5.30

Q: What about the pKd (HLA-B*83:01; [21]) of the same sequence?
A: ≤ 5.30

Q: How did the pKd (HLA-A*02:12) turn out when SQDEVLFLV was run?
A: 8.40

Q: And the pKd (HLA-A*02:01; [26])?
A: 8.35

Q: And the pKd (HLA-A*69:01 [6]; [26])?
A: 7.45

Q: And the pKd (HLA-A*02:16)?
A: ≥ 9.00

Q: With SRLLMRRMR as the sequence, how does the pKd (HLA-B*48:01; source organism: Yellow fever virus) read?
A: ≤ 4.70

Q: How did the pKd (HLA-B*44:02; [30]) turn out when YAKKFKTGM was run?
A: ≤ 4.70

Q: And the pKd (HLA-A*03:01 [2]; [30])?
A: ≤ 4.70

Q: And the pKd (HLA-B*08:01; [30])?
A: 6.38

Q: What about the pKd (HLA-B*57:01 [8]; [30]) of the same sequence?
A: ≤ 4.70

Q: What about the pKd (HLA-B*07:02; [30]) of the same sequence?
A: ≤ 4.70

Q: And the pKd (HLA-B*46:01 [9]; [30])?
A: ≤ 4.70

Q: And the pKd (HLA-A*31:01 [5]; [30])?
A: ≤ 4.70

Q: And the pKd (HLA-A*02:01; [30])?
A: ≤ 4.70

Q: And the pKd (HLA-B*58:01; [30])?
A: ≤ 4.70

Q: And the pKd (HLA-B*40:01; [30])?
A: ≤ 4.70

Q: And the pKd (HLA-B*27:05; [30])?
A: ≤ 4.70

Q: What about the pKd (HLA-A*01:01; [30]) of the same sequence?
A: ≤ 4.70

Q: What about the pKd (HLA-A*11:01 [7]; [30]) of the same sequence?
A: ≤ 4.70
